Data on six molecules can be found in patent US20240400613A1 (SUN PHARMACEUTICAL INDUSTRIES, published 2024).

Starred links: 1 amine or outer side, 2 acyl side, 3 side chain; linkers in the order of their positions; H or OH if unused. Non-standard residues stand in square brackets, D forms with d. Groups on a side chain read outwards from the residue. No end group written: not given here. *: point of attachment. C20 diacid = O=C(O)CCCCCCCCCCCCCCCCCCC(=O)*; γGlu = O=C(O)[C@H](CCC(=O)[*:2])N[*:1]; Nle = CCCC[C@H](N)C(=O)O; Nva = CCC[C@H](N)C(=O)O; AEEA = NCCOCCOCC(=O)O; Aib = CC(C)(N)C(=O)O

One assay concerns the target T1, GIPR (UniProt P48546 22-466, limits assumed).
T1 sequence (looked up): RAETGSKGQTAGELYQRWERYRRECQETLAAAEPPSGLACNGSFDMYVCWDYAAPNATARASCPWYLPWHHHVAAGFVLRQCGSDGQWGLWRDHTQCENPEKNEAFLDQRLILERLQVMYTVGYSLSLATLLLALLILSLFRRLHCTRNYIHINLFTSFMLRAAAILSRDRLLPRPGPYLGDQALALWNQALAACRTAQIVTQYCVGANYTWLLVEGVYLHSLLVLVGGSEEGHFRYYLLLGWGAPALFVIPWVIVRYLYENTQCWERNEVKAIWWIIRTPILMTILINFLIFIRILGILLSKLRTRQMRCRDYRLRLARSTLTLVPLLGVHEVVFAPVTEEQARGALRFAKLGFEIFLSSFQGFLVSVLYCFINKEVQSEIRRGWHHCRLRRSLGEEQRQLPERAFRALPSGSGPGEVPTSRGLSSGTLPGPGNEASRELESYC
As to the kind of experiment: cell-based or functional assay.

The target in another assay is GLP-1R (UniProt P43220 24-463, limits assumed). As to the kind of experiment: cell-based or functional assay.

Tirzepatide (peptide) came in with a Half effective Concentration (EC50), cellular cAMP assay on GIPR-expressing cells with GIPR of 1.9 nM. This molecule also came in with a Half effective Concentration (EC50), cellular cAMP assay on GLP-1R-expressing cells with GLP-1R of 6.8 nM.

B1: Compound 6 (peptide)
peptide: Y[Aib]EGTFTSDYSI[Nva]LDKIAQK([AEEA-AEEA-γGlu-C20 diacid])AFVQWLIAGGPSSGAPPPS-NH2
modifications: N-terminus assumed
SMILES: CCC[C@H](NC(=O)[C@@H](NC(=O)[C@H](CO)NC(=O)[C@H](Cc1ccc(O)cc1)NC(=O)[C@H](CC(=O)O)NC(=O)[C@H](CO)NC(=O)[C@@H](NC(=O)[C@H](Cc1ccccc1)NC(=O)[C@@H](NC(=O)CNC(=O)[C@H](CCC(=O)O)NC(=O)C(C)(C)NC(=O)[C@@H](N)Cc1ccc(O)cc1)[C@@H](C)O)[C@@H](C)O)[C@@H](C)CC)C(=O)N[C@@H](CC(C)C)C(=O)N[C@@H](CC(=O)O)C(=O)N[C@@H](CCCCN)C(=O)N[C@H](C(=O)N[C@@H](C)C(=O)N[C@@H](CCC(N)=O)C(=O)N[C@@H](CCCCNC(=O)COCCOCCNC(=O)COCCOCCNC(=O)CC[C@H](NC(=O)CCCCCCCCCCCCCCCCCCC(=O)O)C(=O)O)C(=O)N[C@@H](C)C(=O)N[C@@H](Cc1ccccc1)C(=O)N[C@H](C(=O)N[C@@H](CCC(N)=O)C(=O)N[C@@H](Cc1c[nH]c2ccccc12)C(=O)N[C@@H](CC(C)C)C(=O)N[C@H](C(=O)N[C@@H](C)C(=O)NCC(=O)NCC(=O)N1CCC[C@H]1C(=O)N[C@@H](CO)C(=O)N[C@@H](CO)C(=O)NCC(=O)N[C@@H](C)C(=O)N1CCC[C@H]1C(=O)N1CCC[C@H]1C(=O)N1CCC[C@H]1C(=O)N[C@@H](CO)C(N)=O)[C@@H](C)CC)C(C)C)[C@@H](C)CC
For the molecule B1, in the assay with GIPR, the “Half effective Concentration (EC50), cellular cAMP assay on GIPR-expressing cells” value is 0.0177 nM. For the same molecule, the “Half effective Concentration (EC50), cellular cAMP assay on GLP-1R-expressing cells” value in the assay with GLP-1R was found to be 0.0196 nM.

B2: Compound 1 (peptide)
peptide: Y[Aib]EGTFTSDYSI[Nva]LDKIAQK([AEEA-Aib-γGlu-C20 diacid])AFVQWLIAGGPSSGAPPPS-NH2
modifications: N-terminus assumed
SMILES: CCC[C@H](NC(=O)[C@@H](NC(=O)[C@H](CO)NC(=O)[C@H](Cc1ccc(O)cc1)NC(=O)[C@H](CC(=O)O)NC(=O)[C@H](CO)NC(=O)[C@@H](NC(=O)[C@H](Cc1ccccc1)NC(=O)[C@@H](NC(=O)CNC(=O)[C@H](CCC(=O)O)NC(=O)C(C)(C)NC(=O)[C@@H](N)Cc1ccc(O)cc1)[C@@H](C)O)[C@@H](C)O)[C@@H](C)CC)C(=O)N[C@@H](CC(C)C)C(=O)N[C@@H](CC(=O)O)C(=O)N[C@@H](CCCCN)C(=O)N[C@H](C(=O)N[C@@H](C)C(=O)N[C@@H](CCC(N)=O)C(=O)N[C@@H](CCCCNC(=O)COCCOCCNC(=O)C(C)(C)NC(=O)CC[C@H](NC(=O)CCCCCCCCCCCCCCCCCCC(=O)O)C(=O)O)C(=O)N[C@@H](C)C(=O)N[C@@H](Cc1ccccc1)C(=O)N[C@H](C(=O)N[C@@H](CCC(N)=O)C(=O)N[C@@H](Cc1c[nH]c2ccccc12)C(=O)N[C@@H](CC(C)C)C(=O)N[C@H](C(=O)N[C@@H](C)C(=O)NCC(=O)NCC(=O)N1CCC[C@H]1C(=O)N[C@@H](CO)C(=O)N[C@@H](CO)C(=O)NCC(=O)N[C@@H](C)C(=O)N1CCC[C@H]1C(=O)N1CCC[C@H]1C(=O)N1CCC[C@H]1C(=O)N[C@@H](CO)C(N)=O)[C@@H](C)CC)C(C)C)[C@@H](C)CC
B2: the “Half effective Concentration (EC50), cellular cAMP assay on GIPR-expressing cells” value with GIPR came out at 0.0276 nM. The “Half effective Concentration (EC50), cellular cAMP assay on GLP-1R-expressing cells” value in the assay with GLP-1R stood at 0.0124 nM.

B3: Compound 11 (peptide)
peptide: Y[Aib]EGTFTSDYSI[Nle]LDKIAQK([AEEA-Aib-γGlu-C20 diacid])AFVQWLIAGGPSSGAPPPS-NH2
modifications: N-terminus assumed
SMILES: CCCC[C@H](NC(=O)[C@@H](NC(=O)[C@H](CO)NC(=O)[C@H](Cc1ccc(O)cc1)NC(=O)[C@H](CC(=O)O)NC(=O)[C@H](CO)NC(=O)[C@@H](NC(=O)[C@H](Cc1ccccc1)NC(=O)[C@@H](NC(=O)CNC(=O)[C@H](CCC(=O)O)NC(=O)C(C)(C)NC(=O)[C@@H](N)Cc1ccc(O)cc1)[C@@H](C)O)[C@@H](C)O)[C@@H](C)CC)C(=O)N[C@@H](CC(C)C)C(=O)N[C@@H](CC(=O)O)C(=O)N[C@@H](CCCCN)C(=O)N[C@H](C(=O)N[C@@H](C)C(=O)N[C@@H](CCC(N)=O)C(=O)N[C@@H](CCCCNC(=O)COCCOCCNC(=O)C(C)(C)NC(=O)CC[C@H](NC(=O)CCCCCCCCCCCCCCCCCCC(=O)O)C(=O)O)C(=O)N[C@@H](C)C(=O)N[C@@H](Cc1ccccc1)C(=O)N[C@H](C(=O)N[C@@H](CCC(N)=O)C(=O)N[C@@H](Cc1c[nH]c2ccccc12)C(=O)N[C@@H](CC(C)C)C(=O)N[C@H](C(=O)N[C@@H](C)C(=O)NCC(=O)NCC(=O)N1CCC[C@H]1C(=O)N[C@@H](CO)C(=O)N[C@@H](CO)C(=O)NCC(=O)N[C@@H](C)C(=O)N1CCC[C@H]1C(=O)N1CCC[C@H]1C(=O)N1CCC[C@H]1C(=O)N[C@@H](CO)C(N)=O)[C@@H](C)CC)C(C)C)[C@@H](C)CC
Regarding B3, the “Half effective Concentration (EC50), cellular cAMP assay on GIPR-expressing cells” value in the assay with GIPR came out at 0.0064 nM. Also, the “Half effective Concentration (EC50), cellular cAMP assay on GLP-1R-expressing cells” value in the assay with GLP-1R is 0.0059 nM.

B4: Compound 3 (peptide)
peptide: Y[Aib]EGTFTSDYSILLDKIAQK([AEEA-Aib-γGlu-C20 diacid])AFVQWLIAGGPSSGAPPPS-NH2
modifications: N-terminus assumed
SMILES: CC[C@H](C)[C@H](NC(=O)[C@H](CCCCN)NC(=O)[C@H](CC(=O)O)NC(=O)[C@H](CC(C)C)NC(=O)[C@H](CC(C)C)NC(=O)[C@@H](NC(=O)[C@H](CO)NC(=O)[C@H](Cc1ccc(O)cc1)NC(=O)[C@H](CC(=O)O)NC(=O)[C@H](CO)NC(=O)[C@@H](NC(=O)[C@H](Cc1ccccc1)NC(=O)[C@@H](NC(=O)CNC(=O)[C@H](CCC(=O)O)NC(=O)C(C)(C)NC(=O)[C@@H](N)Cc1ccc(O)cc1)[C@@H](C)O)[C@@H](C)O)[C@@H](C)CC)C(=O)N[C@@H](C)C(=O)N[C@@H](CCC(N)=O)C(=O)N[C@@H](CCCCNC(=O)COCCOCCNC(=O)C(C)(C)NC(=O)CC[C@H](NC(=O)CCCCCCCCCCCCCCCCCCC(=O)O)C(=O)O)C(=O)N[C@@H](C)C(=O)N[C@@H](Cc1ccccc1)C(=O)N[C@H](C(=O)N[C@@H](CCC(N)=O)C(=O)N[C@@H](Cc1c[nH]c2ccccc12)C(=O)N[C@@H](CC(C)C)C(=O)N[C@H](C(=O)N[C@@H](C)C(=O)NCC(=O)NCC(=O)N1CCC[C@H]1C(=O)N[C@@H](CO)C(=O)N[C@@H](CO)C(=O)NCC(=O)N[C@@H](C)C(=O)N1CCC[C@H]1C(=O)N1CCC[C@H]1C(=O)N1CCC[C@H]1C(=O)N[C@@H](CO)C(N)=O)[C@@H](C)CC)C(C)C
On to B4, for which the “Half effective Concentration (EC50), cellular cAMP assay on GIPR-expressing cells” value with GIPR turned out to be 0.0128 nM. The “Half effective Concentration (EC50), cellular cAMP assay on GLP-1R-expressing cells” value with GLP-1R stood at 0.0327 nM.

B5: Compound 10 (peptide)
peptide: YXEGTFTSDYSIXLDKIAQKAFVQWLIAGGPSSGAPPPS
modifications: Aib at position 2; L-homoalanine (2-aminobutyric acid) at position 13; Lys 20 side chain (epsilon amino) acylated with Moiety A; C-terminal amide (Ser-NH2)
For the molecule B5, in the assay with GIPR, the “Half effective Concentration (EC50), cellular cAMP assay on GIPR-expressing cells” value is 0.0073 nM. Also, the “Half effective Concentration (EC50), cellular cAMP assay on GLP-1R-expressing cells” value in the assay with GLP-1R amounted to 0.0036 nM.
